The target in the test is human CD16a F176 variant, biotinylated (human) (UniProt P08637). Description: AlphaScreen competition: 10 nM C-terminally biotinylated CD16a F176, mouse IgG2a-conjugated acceptor beads as competed ligand.

We go through one substance from US20240108738A1, “BICYCLIC PEPTIDE LIGANDS SPECIFIC FOR NK CELLS” (Bicycle Tx Limited, priority 2021, published 2024).

human CD16a F176 variant, biotinylated (human), sequence (P08637 17-208 limits assumed, change not shown): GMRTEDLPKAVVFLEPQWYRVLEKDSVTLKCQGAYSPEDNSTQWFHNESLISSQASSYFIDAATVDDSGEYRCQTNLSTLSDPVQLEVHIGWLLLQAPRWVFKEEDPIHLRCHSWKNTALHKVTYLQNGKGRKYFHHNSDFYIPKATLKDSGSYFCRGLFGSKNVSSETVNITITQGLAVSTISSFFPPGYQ

For the substance IgG positive control (antibody), the IC50 (read off the curve) came to 50 nM.
